{"source": "paper PMC11376147", "about": "(Chemical Science, 2024)", "target": "SARS-CoV-2 Spike glycoprotein (SARS-CoV-2) (UniProt P0DTC2)", "assay": "SPR", "data": [{"substance": "DC-SIGN entire extracellular domain (ECD) (from UniProt Q9NNX6 59-404) (receptor)", "values": [{"measurement": "SPR response without ligand (the pair that is blocked)", "value": 2500, "unit": "RU"}]}, {"substance": "L-SIGN entire extracellular domain (ECD) (from UniProt Q9H2X3 71-399) (receptor)", "values": [{"measurement": "SPR response without ligand (the pair that is blocked)", "value": 2000, "unit": "RU"}]}]}
